Positions count from the first letter of the chain named. Blank lines part the entries; values can stand above or below the binder they belong to.
Experiments:
[1] = biological target: T1, Smc3^QQ K1004C (S. cerevisiae, UniProt P47037 1-1230, K112Q | K113Q | K1004C); test: cross-linking; in vivo BMOE cross-link of cysteine pairs in yeast cells arrested in late G1 by non-degradable Sic1(9m); Scc1-PK immunoprecipitated, western blot, band intensities quantified; details: partners not purified
T1 construct: Smc3, S. cerevisiae; source: S. cerevisiae W303, late G1 arrested cells, whole-cell extract
T1 sequence (looked up): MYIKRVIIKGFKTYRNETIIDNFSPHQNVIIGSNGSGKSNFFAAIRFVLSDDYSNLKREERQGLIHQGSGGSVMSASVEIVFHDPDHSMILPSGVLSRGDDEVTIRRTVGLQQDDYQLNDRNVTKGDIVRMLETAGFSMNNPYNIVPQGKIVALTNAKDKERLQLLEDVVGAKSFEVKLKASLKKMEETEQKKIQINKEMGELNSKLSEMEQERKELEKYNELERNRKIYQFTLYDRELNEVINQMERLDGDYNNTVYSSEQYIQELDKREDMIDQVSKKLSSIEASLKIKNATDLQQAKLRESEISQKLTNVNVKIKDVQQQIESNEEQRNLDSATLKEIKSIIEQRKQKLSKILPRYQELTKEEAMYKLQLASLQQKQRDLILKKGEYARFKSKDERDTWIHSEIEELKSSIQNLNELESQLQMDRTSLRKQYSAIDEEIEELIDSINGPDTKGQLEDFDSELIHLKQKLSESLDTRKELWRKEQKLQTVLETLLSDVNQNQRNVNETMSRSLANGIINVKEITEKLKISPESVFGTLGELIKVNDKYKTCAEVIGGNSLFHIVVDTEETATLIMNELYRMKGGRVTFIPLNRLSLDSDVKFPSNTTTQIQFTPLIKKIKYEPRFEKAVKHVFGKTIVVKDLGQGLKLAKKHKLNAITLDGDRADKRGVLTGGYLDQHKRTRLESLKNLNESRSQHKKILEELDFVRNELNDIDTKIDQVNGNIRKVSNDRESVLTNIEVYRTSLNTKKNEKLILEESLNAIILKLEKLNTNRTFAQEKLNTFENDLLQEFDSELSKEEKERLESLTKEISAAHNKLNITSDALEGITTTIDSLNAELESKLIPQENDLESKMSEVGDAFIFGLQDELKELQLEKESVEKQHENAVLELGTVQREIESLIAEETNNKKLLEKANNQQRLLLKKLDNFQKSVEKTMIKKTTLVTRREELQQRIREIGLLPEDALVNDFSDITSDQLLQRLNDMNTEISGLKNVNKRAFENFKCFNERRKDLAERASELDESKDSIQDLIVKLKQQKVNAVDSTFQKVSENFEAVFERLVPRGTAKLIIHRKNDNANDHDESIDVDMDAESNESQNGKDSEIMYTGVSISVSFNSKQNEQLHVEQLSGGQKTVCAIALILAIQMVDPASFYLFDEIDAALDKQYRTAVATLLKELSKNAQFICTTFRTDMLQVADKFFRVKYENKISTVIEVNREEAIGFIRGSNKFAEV

[2] = biological target: T2, Smc3^QQ R1008I Q67C (S. cerevisiae, UniProt P47037 1-1230, Q67C | K112Q | K113Q | R1008I); test: as above; details: partners not purified
T2 construct: Smc3, S. cerevisiae; also called smc3-QQ Q67C with R1008I; source: S. cerevisiae W303, late G1 arrested cells, whole-cell extract
T2 sequence (looked up): T1 sequence (looked up) with Q67C, C1004K, R1008I

- crosslinking efficiency relative to wild type [1]: ~10%
B1: Scc2 D369C (natural protein, S. cerevisiae, UniProt Q04002 1-1493, looked up)
chain: MSYPGKDKNIPGRIIEALEDLPLSYLVPKDGLAALVNAPMRVSLPFDKTIFTSADDGRDVNINVLGTANSTTSSIKNEAEKERLVFKRPSNFTSSANSVDYVPTNFLEGLSPLAQSVLSTHKGLNDSINIEKKSEIVSRPEAKHKLESVTSNAGNLSFNDNSSNKKTKTSTGVTMTQANLAEQYLNDLKNILDIVGFDQNSAEIGNIEYWLQLPNKKFVLTTNCLTKLQMTIKNITDNPQLSNSIEITWLLRLLDVMVCNIKFSKSSLKMGLDDSMLRYIALLSTIVLFNIFLLGKNDSNLHRESYIMEPVNFLSDLIESLKILTIEYGSLKIEFDTFQEALELLPKYIRNGPFLDDNVTAKLVYIFSCLLMNNDIEATTNIQFQSFWDNVKRISSDILVSLFGSFDQQRGFIIEELLSHIEKLPTKRIQKKLRKVGNQNIYITDFTFTLMSMLENINCYSFCNQMKDIAPENIDLLKNEYKKQEEFLFNIVEHINDTILERFFKNPSALRYVIDNFVQDLLLLISSPQWPVTEKILSSLLKRLLSVYSPSMQVSANIETICLQLIGNIGSTIFDIKCSTRDHEDNNLIKMINYPETLPHFFKSFEECIAYNETIKCRRSATRFLWNLRLGTILILEEYTKDAKEQIITVDNELKKILEQIKDGGLGPELENREADFSTIKLDYFSILHAFELLNLYDPYLKLILSLLAKDKIKLRSTAIKCLSMLASKDKVILSNPMVKETIHRRLNDSSASVKDAILDLVSINSSYFEFYQQINNNYNDDSIMVRKHVLRINEKMYDETNDIVTKVYVIARILMKIEDEEDNIIDMARLILLNRWILKVHEVLDQPEKLKEISSSVLLVMSRVAIMNEKCSQLFDLFLNFYLLNKEAHSKEAYDKITHVLTILTDFLVQKIVELNSDDTNEKNSIVDKQNFLNLLAKFADSTVSFLTKDHITALYPYMVSDEKSDFHYYILQVFRCTFEKLANFKQKFLYDLETTLLSRLPKMNVREIDEAMPLIWSVATHRHDTARVAKACSSCLSHLHPYINKANNEEAAIVVDGKLQRLIYLSTGFARFCFPKPSNDKIAFLQEGETLYEHITKCLLVLSKDKITHVIRRVAVKNLTKLCGNHPKLFNSRHVLHLLDKEFQSDQLDIKLVILESLYDLFLLEERKSVRNTGVNSTLSSNSILKKKLLKTNRVEFANDGVCSALATRFLDNILQLCLLRDLKNSLVAIRLLKLILKFGYTNPSHSIPTVIALFASTSQYIRHVAYELLEDLFEKYETLVFSSLSRGVTKAIHYSIHTDEKYYYKHDHFLSLLEKLCGTGKKNGPKFFKVLKRIMQSYLDDITDLTSTNSSVQKSIFVLCTNISNITFVSQYDLVSLLKTIDLTTDRLKEVIMDEIGDNVSSLSVSEEKLSGIILIQLSLQDLGTYLLHLYGLRDDVLLLDIVEESELKNKQLPAKKPDISKFSAQLENIEQYSSNGKLLTYFRKHVKDT
notes: Scc2, S. cerevisiae; source: S. cerevisiae W303, in vivo, whole-cell extract

- crosslink relative to wild-type Smc3 [2]: ~40%
B2: Scc2 T1175C (natural protein, S. cerevisiae, UniProt Q04002 1-1493, looked up)
chain: B1 chain with C369D, T1175C
notes: as for B1

Reference: publication PMC10516938, “Conformational dynamics of cohesin/Scc2 loading complex are regulated by Smc3 acetylation and ATP binding” (Nature Communications, 2023)
